Measured values from US20190002511.

How the values were obtained:
[1] = system: avathrin (Amblyomma variegatum thrombin inhibitor)
Chain of avathrin (Amblyomma variegatum thrombin inhibitor) (chain, as listed by the source): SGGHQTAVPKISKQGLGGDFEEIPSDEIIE

## human α-thrombin (recombinant)
[1]
  time to complete cleavage by thrombin (30:1 peptide to enzyme): avathrin was completely cleaved at ~10 h
β-avathrin
Chain of β-avathrin (chain, as listed by the source): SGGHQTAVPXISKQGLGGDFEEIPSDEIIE
  cleavage by thrombin: it was not cleaved by thrombin for up to 72 h
ultravariegin
Chain of ultravariegin (chain, as listed by the source): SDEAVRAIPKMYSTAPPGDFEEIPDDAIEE
  time to complete cleavage by thrombin: At 18 h, ultravariegin was completely cleaved
Avathrin K10R
  time to complete cleavage by thrombin: resulting in complete cleavage within 3 h
